Measured values published in publication PMC7422940 (Journal of bone and mineral research : the official journal …, 2019).

Target: T1, His-tagged full-length ATF4 (mouse, UniProt Q06507 1-349)
T1 sequence (looked up): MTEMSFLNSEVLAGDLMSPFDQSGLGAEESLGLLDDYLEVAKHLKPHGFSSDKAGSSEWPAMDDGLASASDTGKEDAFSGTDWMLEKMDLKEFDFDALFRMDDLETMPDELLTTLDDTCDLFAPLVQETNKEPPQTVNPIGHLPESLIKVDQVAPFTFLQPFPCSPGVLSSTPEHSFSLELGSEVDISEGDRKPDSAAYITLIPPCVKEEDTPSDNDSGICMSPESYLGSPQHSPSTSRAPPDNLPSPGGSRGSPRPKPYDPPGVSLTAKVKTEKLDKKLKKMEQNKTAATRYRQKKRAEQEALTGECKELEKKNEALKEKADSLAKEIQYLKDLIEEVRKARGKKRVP
Test: pull-down

binding result: binds
B1: GST-Hop2^81−147 (domain or fragment, mouse, UniProt O35047 81-147, looked up)
chain: VSDADLHGLDASIVALTAKVQSLQQSCRHMEAELKELTSALTTPEMQKEIQELKKECAQYTERLKNI
